Data reported in the supplement of paper PMC7125110.
± gives the standard error. Fewer inactive variants are shown than the library holds.

B1: glmS ribozyme (parent)
chain: AUAAAAGCGCCAGAACUACAGAAAUGUAGUUGACGAGGAGGAGGUUUAUCGAAUUUUCGGCGGAUGCCUCCAAA

Assays:
Conditions in all cases: with glucosamine-6-phosphate
[1] = variants of: B1; experiment: self-cleavage kobs at 640 uM GlcN6P; higher = faster cleavage; RNA array
Outline: (§1)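 On sequenced MiSeq chips, barcoded ribozyme variants were made in situ by E. coli RNA polymerase and followed at 37 °C through a hybridised Cy3 probe. Glucosamine-6-phosphate was flowed in at 40 μM to 10 mM in HEPES/KCl/Mg(OAc)2 buffer. Exponential fits to normalised per-tile medians gave kobs, and weighted Michaelis–Menten fits gave kcat and KM.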

[2] = variants of: B1; experiment: self-cleavage kobs at 2500 uM GlcN6P; higher = faster cleavage; RNA array
Outline: as §1

[3] = variants of: B1; experiment: self-cleavage kobs at 10000 uM GlcN6P; higher = faster cleavage; RNA array
Outline: as §1

Variant	self-cleavage kobs at 640 uM GlcN6P [1]	self-cleavage kobs at 2500 uM GlcN6P [2]	self-cleavage kobs at 10000 uM GlcN6P [3]
C50U G63U C68G	0.000126 ± 5e-05 s⁻¹	7.59e-05 ± 3.2e-05 s⁻¹	–
U46A A48G C50U	< 1e-05 s⁻¹	< 1e-05 s⁻¹	–
U49C C50U G51A	< 1e-05 s⁻¹	< 1e-05 s⁻¹	–
C58U G59C C61U C71A	< 1e-05 s⁻¹	–	–
A42C G44U A64G C68G	< 1e-05 s⁻¹	–	–
G43U C70G C71A	< 1e-05 s⁻¹	< 1e-05 s⁻¹	–
G44A U55A G59U	< 1e-05 s⁻¹	< 1e-05 s⁻¹	–
G40A G51A U55A	< 1e-05 s⁻¹	–	–
G43U G66U C71G	< 1e-05 s⁻¹	< 1e-05 s⁻¹	–
G41A G63U U65G C70U	< 1e-05 s⁻¹	< 1e-05 s⁻¹	–
C50A U54C U57C C70A	< 1e-05 s⁻¹	–	–
U54A U57A	4.89e-05 ± 1.3e-05 s⁻¹	0.000102 ± 2.8e-05 s⁻¹	–
U54G U55C U56G G59C U69G	0.000119 ± 4.3e-05 s⁻¹	6.83e-05 ± 2.7e-05 s⁻¹	–
U47G G51U	< 1e-05 s⁻¹	–	–
A42C U46G U49A	< 1e-05 s⁻¹	–	–
U57G G62C C68U C70G	4.22e-05 ± 2e-05 s⁻¹	–	–
C61G G63A C71G	0.000127 ± 4.2e-05 s⁻¹	0.000255 ± 9.2e-05 s⁻¹	–
G37U C61G	< 1e-05 s⁻¹	–	< 1e-05 s⁻¹
A42C U65G U69G	0.000819 ± 0.00019 s⁻¹	0.00302 ± 0.00061 s⁻¹	0.00402 ± 0.001 s⁻¹
G37U A39U G40U A48U C50G C67A	< 1e-05 s⁻¹	< 1e-05 s⁻¹	–
G40C U45C A48G	< 1e-05 s⁻¹	< 1e-05 s⁻¹	–
G38U C61A	< 1e-05 s⁻¹	–	–

Variant	self-cleavage kobs at 640 uM GlcN6P [1]	self-cleavage kobs at 2500 uM GlcN6P [2]	self-cleavage kobs at 10000 uM GlcN6P [3]
G40U U46G U47G U55A G63U	< 1e-05 s⁻¹	< 1e-05 s⁻¹	–
A52G U54A C68U	6.73e-05 ± 2e-05 s⁻¹	–	–
C50A G51U G59A U69A	0.000511 ± 0.00021 s⁻¹	–	–
G40A A42G A53U	0.000733 ± 0.00023 s⁻¹	0.000522 ± 0.00021 s⁻¹	–
C50G C67G C70U C71A	0.000149 ± 4.5e-05 s⁻¹	0.000157 ± 2.9e-05 s⁻¹	–
A42G U47G C67U	0.00108 ± 0.00019 s⁻¹	0.0013 ± 0.00029 s⁻¹	–
A42C G43U C70U	< 1e-05 s⁻¹	< 1e-05 s⁻¹	–
A53U U54A U56A C70G	0.000134 ± 3e-05 s⁻¹	8.57e-05 ± 1.9e-05 s⁻¹	–
U47C G59U	< 1e-05 s⁻¹	–	–
A39U G43U C50U	< 1e-05 s⁻¹	< 1e-05 s⁻¹	–
G37A G40U U55G	6.13e-05 ± 2.5e-05 s⁻¹	6.99e-05 ± 1.6e-05 s⁻¹	–
U45G U55C C68U	< 1e-05 s⁻¹	–	–
U46A U56C C68A	< 1e-05 s⁻¹	< 1e-05 s⁻¹	–
G51C A64C	< 1e-05 s⁻¹	–	< 1e-05 s⁻¹
G40U G41U U49G C61G	< 1e-05 s⁻¹	< 1e-05 s⁻¹	–
A39G A42G C50A	< 1e-05 s⁻¹	< 1e-05 s⁻¹	–
U45G G60U G62C C70U	< 1e-05 s⁻¹	< 1e-05 s⁻¹	–
U46A A53G U65G	0.000479 ± 0.00011 s⁻¹	–	–
U46G U57C G60U	< 1e-05 s⁻¹	–	–
U49A C50G	< 1e-05 s⁻¹	–	–
G60C C68G C70U	< 1e-05 s⁻¹	< 1e-05 s⁻¹	–
G41A C58A U69A	< 1e-05 s⁻¹	< 1e-05 s⁻¹	–

Variant	self-cleavage kobs at 640 uM GlcN6P [1]	self-cleavage kobs at 2500 uM GlcN6P [2]	self-cleavage kobs at 10000 uM GlcN6P [3]
U65G A72C	0.000308 ± 7.4e-05 s⁻¹	–	–
U47G U55A C68G C71G	0.000142 ± 4.5e-05 s⁻¹	–	4.14e-05 ± 1.5e-05 s⁻¹
G37C U49C	< 1e-05 s⁻¹	< 1e-05 s⁻¹	< 1e-05 s⁻¹
C58G U65C	< 1e-05 s⁻¹	< 1e-05 s⁻¹	–
A39G U46C C71U	0.00179 ± 0.00048 s⁻¹	–	–
U57C G62C C68G	< 1e-05 s⁻¹	–	–
U49C C50A C70A	7.42e-05 ± 3.6e-05 s⁻¹	–	–
G37U G62U	< 1e-05 s⁻¹	–	–
G38A A42U G60U C71G	< 1e-05 s⁻¹	–	–
G51A G62C G63C	< 1e-05 s⁻¹	–	–
C58A G60U	< 1e-05 s⁻¹	< 1e-05 s⁻¹	< 1e-05 s⁻¹
U54A C67U C68A	6.98e-05 ± 2.2e-05 s⁻¹	–	–
A39U A48U U55C G59U	< 1e-05 s⁻¹	< 1e-05 s⁻¹	–
A39U U45G A52G C70A	< 1e-05 s⁻¹	–	–
A48U C58A C61G	< 1e-05 s⁻¹	–	–
A42C G43U U56A G66U	< 1e-05 s⁻¹	–	–
G41A G44U G66A	< 1e-05 s⁻¹	< 1e-05 s⁻¹	–
G41U U45A G51C C58G	< 1e-05 s⁻¹	< 1e-05 s⁻¹	–
A42C A52U A64G	< 1e-05 s⁻¹	< 1e-05 s⁻¹	–
U45G U46A U57G	< 1e-05 s⁻¹	–	–
G43A U46C U54A U56A U69C	< 1e-05 s⁻¹	–	–
A42U G44U C61G	< 1e-05 s⁻¹	< 1e-05 s⁻¹	–
